Tests used:
[1] = Maleate model of AKI (FeS, SnPP, FeS+SnPP); format: in vivo, mice; conditions: IV 1 mg FeS and/or 1 μmole SnPP 18 hrs before IP Na maleate 800 mg/Kg; 18 hrs later
Source text: Effects of Fe sucrose (FeS)/tin protoporphyrin (SnPP) on AKI severity. Maleate model of AKI. When injected into rodents, maleate undergoes relatively selective proximal tubule cell uptake via organic anion transporters. Once intracellular accumulation occurs, maleate is a preferred substrate for succinyl-CoA:3-oxoacid CoA transferase. […] Ample levels of CoA are essential for fatty acid “activation”, allowing for their subsequent metabolism through the Krebs cycle, yielding ATP. In the absence of this process, proximal tubule ATP depletion and cell injury result. Additionally, maleate conjugates the sulfhydryl group of glutathione (GSH), culminating in GSH depletion and potential oxidant tubular stress.
The following experiment tested whether FeS, SnPP or combined FeS+SnPP can mitigate this form of acute kidney injury (AKI). Twenty seven mice were subjected to 200 μL IV tail injections of one of the following: 1) vehicle (phosphate buffered saline, PBS; n, 10); 2) 1 mg FeS (American Regent (Shirley, N.Y.; n, 3); 3) 1 μmole SnPP (Frontier Scientific, Logan, Utah; n 7), or FeS+SnPP, n, 7). Eighteen hrs later, all mice received an IP injection of Na maleate (800 mg/Kg; in 500 ul of PBS). […] The severity of kidney injury was assessed by determining plasma blood urea nitrogen (BUN) and plasma creatinine (PCr) concentrations.

heme oxygenase 1 (HO-1) = experiment: Renal cortical induction of HO-1 by FeS, SnPP and B12 (ELISA, RT-PCR); format: in vivo, mice
Description: Effects of FeS, SnPP, and B12 on renal cortical induction of heme oxygenase 1 (HO-1). The following experiments assessed the effects of FeS, SnPP, and B12 on the possible induction of the cytoprotective protein HO-1. To this end, mice were injected with each of these agents, as noted above. Either 4 or 18 hrs later, they were anesthetized and the kidneys were removed through a midline abdominal incision. The renal cortices were dissected on ice and then extracted for protein and mRNA. The samples were then assayed for HO-1 protein by ELISA, and HO-1 mRNA by RT-PCR, factored by GAPDH levels. Five normal mice provided control values.

Haptoglobin [2] = experiment: Renal cortical haptoglobin mRNA and protein after N-Mgb, SnPP or both; format: in vivo, mice
Description: (§1) Thirty-two mice were divided into 4 equal groups: (1) control mice; (2) mice treated with 1 mg of N-Mgb injection (as a bolus through the tail vein); (3) mice treated with […] of SnPP (via tail vein); and (4) mice treated with combined N-Mgb 1 SnPP. After either 4 hours (n=16) or 18 hours (n=16), the mice were deeply anesthetized with pentobarbital (50 mg/kg), the abdomen was opened through a midline abdominal incision, and the kidneys were removed. To determine potential effects on extrarenal organs, a liver lobe and the heart were also removed. The tissues were iced and then extracted for protein and RNA (RNeasy Plus Mini; Qiagen, Valencia, Calif.) and subjected to enzyme linked immunosorbent assay (ELISA) and reverse transcriptase polymerase chain reaction (RT-PCR) for HO-1, haptoglobin, and IL-10 protein and messenger RNAs (mRNAs). Zager et al. J Am Soc Nephrol 2014;25:998-1012; Zager et al. Am J Physiol 2012;303:F139-48. As an assessment of renal function, control mice and the 18 hour after N-Mgb+SnPP—treated mice had blood urea nitrogen (BUN) and plasma creatinine levels measured. Additionally, transverse 10% formalin fixed kidney sections ([…]) were cut and stained with hematoxylin and eosin (H&E) and periodic acid Schiff (PAS) to further assess potential injury.

[3] = Glycerol model of rhabdomyolysis-induced AKI; format: in vivo, mice; conditions: IV pretreatment 18 hours before glycerol; 18 hours after glycerol
Description: Assessments of cytoresistance. Glycerol model of rhabdomyolysis-induced AKI. Twenty mice were divided into 4 equal groups (controls, mice treated with N-Mgb, SnPP, and mice treated with N-Mgb+SnPP tail vein injections) as described previously. 18 hours later, the mice were briefly anesthetized with isoflurane and immediately injected with 9 mL/kg of 50% glycerol, administered in equally divided doses into each hind limb. At 18 hours after glycerol injection, the mice were anesthetized with pentobarbital, the abdomen was opened, a blood sample for BUN and creatinine assessments was obtained from the vena cava, and the kidneys were resected. The control post-glycerol group and the N-Mgb+SnPP—pretreated glycerol group had kidney sections stained with H&E.
Calculations and statistics. All values are given as the mean […] standard error of the mean. Statistical comparisons were made by unpaired Student's t test. If multiple comparisons were made, the Bonferroni correction was applied. The severity of renal histologic injury in the glycerol AKI model was graded on a […] (least to most severe tubular necrosis and cast formation observed). The histologic results were compared by Wlcoxon rank sum test. Statistical significance was taken as a P value of <0.05.

HO-1 [4] = experiment: Liver HO-1 mRNA and protein after N-Mgb, SnPP or both; format: in vivo, mice
Description: as §1

HK-2 cells = experiment: HK-2 cell injury by MTT assay; format: cell-based; conditions: equimolar Na nitrite added to 10 mg/ml myoglobin, 18 hr incubation
Description: HK-2 cells (a proximal tubule cell line derived from normal human kidney) were incubated in keratinocyte serum free medium either under normal (control) conditions or in the presence of 10 mg/mL horse skeletal muscle myoglobin or nitrited myoglobin (produced by equimolar Na nitrite addition to 10 mg/ml myoglobin). After 18 hr incubations, the severity of cell injury (% cell death) was assessed by MTT assay. Myoglobin induced 40% cell death (40% decrease in MTT cell uptake), compared to control incubated cells. Nitrite binding to myoglobin reduced cell death by 75%. Thus, nitrite binding is able to reduce myoglobin's cytotoxic effects.

Haptoglobin [5] = experiment: Liver haptoglobin mRNA and protein after N-Mgb, SnPP or both; format: in vivo, mice
Description: as §1

Haptoglobin [6] = experiment: Cardiac haptoglobin mRNA and protein after N-Mgb, SnPP or both; format: in vivo, mice
Description: as §1

IL-10 [7] = experiment: Renal cortical IL-10 mRNA and protein after N-Mgb, SnPP or both; format: in vivo, mice
Description: as §1

HO-1 [8] = experiment: Renal cortical HO-1 mRNA (RT-PCR) and protein (ELISA) after N-Mgb, SnPP or both; format: in vivo, mice
Description: as §1

[9] = Serum creatinine after 2 hr subcutaneous infusion of N-myoglobin (constant SnPP); format: in vivo, mice; conditions: 2 hr subcutaneous infusion 1, 3, 6, 12, or 25 mg/Kg, SnPP constant 1 μmole; 18 hrs later
Description: Mice were subjected to a 2 hr subcutaneous infusion of 1, 3, 6, 12, or 25 mg/Kg of nitrited myoglobin (holding SnPP at a constant dose of 1 μmole). Eighteen hrs later, potential renal injury was assessed by measuring serum creatinine concentrations.
An obvious concern by applying this prophylactic strategy to patients is potential renal and/or extrarenal toxicities. […] Furthermore, it was previously documented in a cell culture system that nitrite addition markedly reduces myoglobin's cytotoxic effects by 75% (unpublished data, 2014). To assess the potential in vivo margin of safety for N-Mgb+SnPP (see Supplemental FIGs.), the maximal amount of N-Mgb that could be given to mice before nephrotoxicity was observed was tested. Up to 25 times the employed N-Mgb dose (with a constant SnPP dose) could be administered (over 2 hours) without induction of nephrotoxicity (normal BUN and creatinine, 18 hours later).

IL-10 [10] = experiment: Cardiac IL-10 mRNA and protein after N-Mgb, SnPP or both; format: in vivo, mice
Description: as §1

IL-10 [11] = experiment: Liver IL-10 mRNA and protein after N-Mgb, SnPP or both; format: in vivo, mice
Description: as §1

HO-1 [12] = experiment: Cardiac HO-1 mRNA and protein after N-Mgb, SnPP or both; format: in vivo, mice
Description: as §1

[13] = renal cortex, 4 h after Rx treatment

Fe sucrose [FeS]
reductions in BUN/PCr concentrations, maleate-induced AKI [1]: Neither SnPP alone nor FeS alone significantly altered the severity of renal injury
renal cortical HO-1 protein levels (heme oxygenase 1 (HO-1); 4 hr post IV injection): marked HO-1 protein increases
renal cortical HO-1 protein levels (heme oxygenase 1 (HO-1); 18 hr time point): remained elevated at the 18 hr time point, particularly in the case of FeS administration
renal cortical HO-1 protein levels (heme oxygenase 1 (HO-1); 18 hr time point, listed as Fe sucrose): persists for 18 hrs

cyanocobalamin [vitamin B12]
renal cortical HO-1 protein levels (heme oxygenase 1 (HO-1); 4 hr post IV injection): marked HO-1 protein increases
renal cortical HO-1 protein levels (heme oxygenase 1 (HO-1); 18 hr time point): persists for 18 hrs

B1: N-Mgb: horse skeletal muscle myoglobin converted into a nitrited form by equimolar Na nitrite (protein, UniProt P68082 2-154, looked up)
Myoglobin: GLSDGEWQQVLNVWGKVEADIAGHGQEVLIRLFTGHPETLEKFDKFKHLKTEAEMKASEDLKKHGTVVLTALGGILKKKGHHEAELKPLAQSHATKHKIPIKYLEFISDAIIHVLHSKHPGDFGADAQGAMTKALELFRNDIAAKYKELGFQG
modifications: nitrited with sodium nitrite
Kidney mRNA cortex Haptoglobin (Haptoglobin [2]; 18 h after Rx treatment): 0.24 ± 0.04
Kidney protein Haptoglobin (Haptoglobin [2]; 18 h after Rx treatment): 183.8 ± 20.4
increase in renal cortical haptoglobin protein levels (Haptoglobin [2]; 18 hours after injections): comparably increased
Kidney Haptoglobin (protein) (Haptoglobin [2]; [13]): 17.6 ± 1^
Kidney mRNA Haptoglobin (Haptoglobin [2]; [13]): 1.94 ± 0.31
protection against glycerol-induced AKI (BUN/creatinine levels) [3]: modest protection
Liver mRNA HO-1 (HO-1 [4]; 4 h after Rx treatment): 1.83 ± 0.33
Liver protein HO-1 protein (HO-1 [4]; 4 h after Rx treatment): 17 ± 2
Liver mRNA HO-1 (HO-1 [4]; 18 h after Rx treatment): 0.82 ± 0.07
Liver protein HO-1 protein (HO-1 [4]; 18 h after Rx treatment): 14.9 ± 0.3
reduction of myoglobin-induced cell death by nitrite binding (HK-2 cells): 75%
Liver mRNA Haptoglobin (Haptoglobin [5]; 4 h after Rx treatment): 0.98 ± 0.1
Liver protein Haptoglobin (Haptoglobin [5]; 4 h after Rx treatment): 359.5 ± 39.6
Liver mRNA Haptoglobin (Haptoglobin [5]; 18 h after Rx treatment): 0.91 ± 0.07
Liver protein Haptoglobin (Haptoglobin [5]; 18 h after Rx treatment): 358.8 ± 32.8
Cardiac mRNA Haptoglobin (Haptoglobin [6]; 4 h after Rx treatment): 0.75 ± 0.10
Cardiac protein Haptoglobin (Haptoglobin [6]; 4 h after Rx treatment): 40.4 ± 8.6
Cardiac mRNA Haptoglobin (Haptoglobin [6]; 18 h after Rx treatment): 0.53 ± 0.21
Cardiac protein Haptoglobin (Haptoglobin [6]; 18 h after Rx treatment): 249.6 ± 15.0
increase in renal IL-10 mRNA (IL-10 [7]; 4 hours after injection): either minimal or no impact
Kidney mRNA cortex IL-10 (IL-10 [7]; 18 h after Rx treatment): 0.43 ± 0.10
Kidney protein IL-10 (IL-10 [7]; 18 h after Rx treatment): 292 ± 54
increase in renal IL-10 protein (IL-10 [7]; 18 hours after injection): absence of IL-10 protein increases
Kidney IL-10 (protein) (IL-10 [7]; [13]): 265 ± 54
Kidney mRNA IL-10 (IL-10 [7]; [13]): 1.45 ± 0.6
increase in renal HO-1 mRNA (HO-1 [8]; 4 hours after IV injection, vs controls): only modest increases
Kidney mRNA cortex HO-1 (HO-1 [8]; 18 h after Rx treatment): 0.58 ± 0.18
Kidney protein HO-1 (HO-1 [8]; 18 h after Rx treatment): 30 ± 6
increase in renal HO-1 protein (HO-1 [8]; 18 hours post-treatment, vs control values): only relatively small HO-1 protein increases
Kidney HO-1 protein (HO-1 [8]; [13]): 36.1 ± 2.9
Kidney mRNA HO-1 (HO-1 [8]; [13]): 3.38 ± 0.38
serum creatinine concentrations (potential renal injury) [9]: No significant increase
Cardiac mRNA IL-10 (IL-10 [10]; 4 h after Rx treatment): 0.86 ± 0.11
Cardiac protein IL-10 (IL-10 [10]; 4 h after Rx treatment): 21 ± 12
Cardiac mRNA IL-10 (IL-10 [10]; 18 h after Rx treatment): 0.67 ± 0.10
Cardiac protein IL-10 (IL-10 [10]; 18 h after Rx treatment): 14.5 ± 10^
Liver mRNA IL-10 (IL-10 [11]; 4 h after Rx treatment): 0.67 ± 0.46
Liver protein IL-10 (IL-10 [11]; 4 h after Rx treatment): 286 ± 32
Liver mRNA IL-10 (IL-10 [11]; 18 h after Rx treatment): 0.06 ± 0.02
Liver protein IL-10 (IL-10 [11]; 18 h after Rx treatment): 5988 ± 549
Cardiac Protein HO-1 (HO-1 [12]; 4 h after Rx treatment): 1.64 ± 0.19
Cardiac mRNA HO-1 (HO-1 [12]; 4 h after Rx treatment): 0.09 ± 0.01
Cardiac mRNA HO-1 (HO-1 [12]; 18 h after Rx treatment): 0.08 ± 0.01

Source: patent US9844563B2, “Compositions, kits, and methods to induce acquired cytoresistance using stress protein inducers” (FRED HUTCHINSON CANCER RESEARCH CENTER, priority 2014, dated 2017)
